Data as given in paper PMC9352680, “A comprehensive thermodynamic model for RNA binding by the Saccharomyces cerevisiae Pumilio protein PUF4”.

T1: PUF4 RNA-binding domain (Saccharomyces cerevisiae, UniProt P25339 537-888)
T1 sequence: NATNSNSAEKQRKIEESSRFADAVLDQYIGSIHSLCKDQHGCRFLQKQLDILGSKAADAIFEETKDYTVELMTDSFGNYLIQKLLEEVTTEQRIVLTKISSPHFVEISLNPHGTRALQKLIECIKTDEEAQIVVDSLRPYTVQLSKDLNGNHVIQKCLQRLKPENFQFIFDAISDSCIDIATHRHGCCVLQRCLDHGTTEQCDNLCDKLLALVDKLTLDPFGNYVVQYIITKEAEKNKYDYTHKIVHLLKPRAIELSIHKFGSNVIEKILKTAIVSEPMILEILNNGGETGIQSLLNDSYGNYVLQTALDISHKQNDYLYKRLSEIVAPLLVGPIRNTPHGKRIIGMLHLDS


Biological target: T1, PUF4 RNA-binding domain
Assay: Mg; RNA-MaP; 20 mM Na-HEPES pH 7.4, 30 mM KOAc, 0.75 mM MgCl2, 0.1% Tween-20, 5% glycerol, 0.1 mg/mL BSA, 2 mM DTT; 25 C; 0.0125-409.6 nM protein
Details: tags: N-His6-TEV cleaved; C-SNAP kept, Cy3B-labelled; label: tethered on chip by stalled RNA polymerase

Row | Binder | Kd
1 | Id_iii_S2_P4E.6_K4.2_C4.3_H4.2_A4.1_F4.1_T4.2_[G10A] (ssRNA) RNA: UUUGAUUAAUAUGAUAUCGUUCUUUCUUCUUAUAUAUUAAUUUCUUUCUCGAUAUCAUAUUAAUCUUU | 10.7 nM
2 | Id_iii_S2_P4E.7_K4.3_C4.3_[T-1C]_H4.3_A4.1_F4.1_T4.2 (ssRNA) RNA: UUUGAUUAAUAUGAUAUCGUUCUUUCUUCCACACUAUUAGUUUCUUUCUCGAUAUCAUAUUAAUCUUU | > 2300 nM
3 | UCUCUUUGUAGCAUUAUCUCUU (ssRNA) [Ib_S1_P5E.1_K5.1_C5.1_H5.1_A5.1_[T5G]_[T6C]_F5.1_T5.1] | 15.3 nM
4 | Id_iii_S2_P4E.7_K4.3_C4.3_[T-1A]_H4.3_A4.1_F4.1_T4.2 (ssRNA) RNA: UUUGAUUAAUAUGAUAUCGUUCUUUCUUCAACACUAUUAGUUUCUUUCUCGAUAUCAUAUUAAUCUUU | > 2300 nM
5 | Id_iii_S2_P4E.7_K4.3_C4.3_H4.3_A4.1_F4.1_T4.2_[G10C] (ssRNA) RNA: UUUGAUUAAUAUGAUAUCGUUCUUUCUUCUACACUAUUACUUUCUUUCUCGAUAUCAUAUUAAUCUUU | 494 nM
6 | Id_iii_S2_P4E.7_K4.3_C4.3_H4.3_A4.1_F4.1_T4.2_[G10T] (ssRNA) RNA: UUUGAUUAAUAUGAUAUCGUUCUUUCUUCUACACUAUUAUUUUCUUUCUCGAUAUCAUAUUAAUCUUU | 486 nM
7 | Id_iii_S2_P4E.7_K4.3_C4.3_H4.3_A4.1_F4.1_T4.2_[T11C] (ssRNA) RNA: UUUGAUUAAUAUGAUAUCGUUCUUUCUUCUACACUAUUAGCUUCUUUCUCGAUAUCAUAUUAAUCUUU | > 2300 nM
8 | Id_iii_S2_P4E.8_K4.4_C4.3_[T-3C]_H4.1_A4.2_F4.1_T4.2 (ssRNA) RNA: UUUGAUUAAUAUGAUAUCGUUCUUUCUCCUUGUAUUUUAGUUUCUUUCUCGAUAUCAUAUUAAUCUUU | 0.923 nM
9 | Id_iii_S2_P4E.8_K4.4_C4.3_[C-2G]_H4.1_A4.2_F4.1_T4.2 (ssRNA) RNA: UUUGAUUAAUAUGAUAUCGUUCUUUCUUGUUGUAUUUUAGUUUCUUUCUCGAUAUCAUAUUAAUCUUU | 1.45 nM
10 | Id_iii_S2_P4E.8_K4.4_C4.3_[C-2T]_H4.1_A4.2_F4.1_T4.2 (ssRNA) RNA: UUUGAUUAAUAUGAUAUCGUUCUUUCUUUUUGUAUUUUAGUUUCUUUCUCGAUAUCAUAUUAAUCUUU | 0.936 nM
11 | Id_iii_S2_P4E.8_K4.4_C4.3_[C-2A]_H4.1_A4.2_F4.1_T4.2 (ssRNA) RNA: UUUGAUUAAUAUGAUAUCGUUCUUUCUUAUUGUAUUUUAGUUUCUUUCUCGAUAUCAUAUUAAUCUUU | 1.76 nM
12 | Id_iii_S2_P4E.8_K4.4_C4.3_[T-1A]_H4.1_A4.2_F4.1_T4.2 (ssRNA) RNA: UUUGAUUAAUAUGAUAUCGUUCUUUCUUCAUGUAUUUUAGUUUCUUUCUCGAUAUCAUAUUAAUCUUU | 1.28 nM
13 | Id_iii_S2_P4E.8_K4.4_C4.3_H4.1_A4.2_F4.1_T4.2_[G10C] (ssRNA) RNA: UUUGAUUAAUAUGAUAUCGUUCUUUCUUCUUGUAUUUUACUUUCUUUCUCGAUAUCAUAUUAAUCUUU | 2.77 nM
14 | UCUCUUUGUACGAUUAUCUCUU (ssRNA) [Ib_S1_P5E.1_K5.1_C5.1_H5.1_A5.1_[T5C]_[T6G]_F5.1_T5.1] | 9.71 nM
15 | Id_iii_S2_P4E.8_K4.4_C4.3_H4.1_A4.2_F4.1_T4.2_[G10T] (ssRNA) RNA: UUUGAUUAAUAUGAUAUCGUUCUUUCUUCUUGUAUUUUAUUUUCUUUCUCGAUAUCAUAUUAAUCUUU | 0.967 nM
16 | Id_iii_S2_P4E.8_K4.4_C4.3_H4.1_A4.2_F4.1_T4.2_[T11C] (ssRNA) RNA: UUUGAUUAAUAUGAUAUCGUUCUUUCUUCUUGUAUUUUAGCUUCUUUCUCGAUAUCAUAUUAAUCUUU | 1.42 nM
17 | Id_iii_S2_P4E.9_K4.5_C4.3_[T-1G]_H4.1_A4.2_F4.2_T4.2 (ssRNA) RNA: UUUGAUUAAUAUGAUAUCGUUCUUUCUUCGUGUAUUUAAGUUUCUUUCUCGAUAUCAUAUUAAUCUUU | 502 nM
18 | Id_iii_S2_P4E.9_K4.5_C4.3_[T-1A]_H4.1_A4.2_F4.2_T4.2 (ssRNA) RNA: UUUGAUUAAUAUGAUAUCGUUCUUUCUUCAUGUAUUUAAGUUUCUUUCUCGAUAUCAUAUUAAUCUUU | 554 nM
19 | Id_iii_S2_P4E.9_K4.5_C4.3_H4.1_A4.2_F4.2_T4.2_[G10C] (ssRNA) RNA: UUUGAUUAAUAUGAUAUCGUUCUUUCUUCUUGUAUUUAACUUUCUUUCUCGAUAUCAUAUUAAUCUUU | 77.5 nM
20 | Id_iii_S2_P5E.5_K5.1_C5.3_H5.1_A5.1_F5.1_T5.2_[T11A] (ssRNA) RNA: UUUGAUUAAUAUGAUAUCGUUCUUUCUUCUUGUAUUAUUAAAUUCUUUCUCGAUAUCAUAUUAAUCUUU | 3.88 nM
21 | Id_iii_S2_P5E.5_K5.1_C5.3_H5.1_A5.1_F5.1_T5.2_[A12G] (ssRNA) RNA: UUUGAUUAAUAUGAUAUCGUUCUUUCUUCUUGUAUUAUUAUGUUCUUUCUCGAUAUCAUAUUAAUCUUU | 2.58 nM
22 | Id_iii_S2_P5E.5_K5.1_C5.3_H5.1_A5.1_F5.1_T5.2_[A12C] (ssRNA) RNA: UUUGAUUAAUAUGAUAUCGUUCUUUCUUCUUGUAUUAUUAUCUUCUUUCUCGAUAUCAUAUUAAUCUUU | 1.64 nM
23 | Id_iii_S2_P5E.5_K5.1_C5.3_H5.1_A5.1_F5.1_T5.2_[A12T] (ssRNA) RNA: UUUGAUUAAUAUGAUAUCGUUCUUUCUUCUUGUAUUAUUAUUUUCUUUCUCGAUAUCAUAUUAAUCUUU | 1.59 nM

Row | Binder | Kd
24 | Id_iii_S2_P5E.6_K5.2_C5.3_H5.2_A5.1_F5.1_T5.2_[A12T] (ssRNA) RNA: UUUGAUUAAUAUGAUAUCGUUCUUUCUUCUUAUAUUAUUAUUUUCUUUCUCGAUAUCAUAUUAAUCUUU | 42.1 nM
25 | UCUCUUUGUACAAUUAUCUCUU (ssRNA) [Ic_S1_P5E.1_K5.1_C5.1_H5.1_A5.1_[T5C]_[T6A]_F5.1_T5.1] | 5.07 nM
26 | Id_iii_S2_P5E.7_K5.3_C5.3_[T-3A]_H5.3_A5.1_F5.1_T5.2 (ssRNA) RNA: UUUGAUUAAUAUGAUAUCGUUCUUUCUACUACACUUAUUAUAUUCUUUCUCGAUAUCAUAUUAAUCUUU | 709 nM
27 | Id_iii_S2_P5E.7_K5.3_C5.3_[C-2G]_H5.3_A5.1_F5.1_T5.2 (ssRNA) RNA: UUUGAUUAAUAUGAUAUCGUUCUUUCUUGUACACUUAUUAUAUUCUUUCUCGAUAUCAUAUUAAUCUUU | 2.01 nM
28 | Id_iii_S2_P5E.7_K5.3_C5.3_[C-2A]_H5.3_A5.1_F5.1_T5.2 (ssRNA) RNA: UUUGAUUAAUAUGAUAUCGUUCUUUCUUAUACACUUAUUAUAUUCUUUCUCGAUAUCAUAUUAAUCUUU | 579 nM
29 | Id_iii_S2_P5E.7_K5.3_C5.3_[T-1G]_H5.3_A5.1_F5.1_T5.2 (ssRNA) RNA: UUUGAUUAAUAUGAUAUCGUUCUUUCUUCGACACUUAUUAUAUUCUUUCUCGAUAUCAUAUUAAUCUUU | 963 nM
30 | Id_iii_S2_P5E.7_K5.3_C5.3_[T-1C]_H5.3_A5.1_F5.1_T5.2 (ssRNA) RNA: UUUGAUUAAUAUGAUAUCGUUCUUUCUUCCACACUUAUUAUAUUCUUUCUCGAUAUCAUAUUAAUCUUU | 838 nM
31 | Id_iii_S2_P5E.7_K5.3_C5.3_[T-1A]_H5.3_A5.1_F5.1_T5.2 (ssRNA) RNA: UUUGAUUAAUAUGAUAUCGUUCUUUCUUCAACACUUAUUAUAUUCUUUCUCGAUAUCAUAUUAAUCUUU | 823 nM
32 | Id_iii_S2_P5E.7_K5.3_C5.3_H5.3_A5.1_F5.1_T5.2_[T11C] (ssRNA) RNA: UUUGAUUAAUAUGAUAUCGUUCUUUCUUCUACACUUAUUACAUUCUUUCUCGAUAUCAUAUUAAUCUUU | 1770 nM
33 | Id_iii_S2_P5E.7_K5.3_C5.3_H5.3_A5.1_F5.1_T5.2_[A12C] (ssRNA) RNA: UUUGAUUAAUAUGAUAUCGUUCUUUCUUCUACACUUAUUAUCUUCUUUCUCGAUAUCAUAUUAAUCUUU | > 2300 nM
34 | Id_iii_S2_P5E.7_K5.3_C5.3_H5.3_A5.1_F5.1_T5.2_[A12T] (ssRNA) RNA: UUUGAUUAAUAUGAUAUCGUUCUUUCUUCUACACUUAUUAUUUUCUUUCUCGAUAUCAUAUUAAUCUUU | 2160 nM
35 | Id_iii_S2_P5E.8_K5.4_C5.3_[T-3C]_H5.1_A5.2_F5.1_T5.2 (ssRNA) RNA: UUUGAUUAAUAUGAUAUCGUUCUUUCUCCUUGUAAUAUUAUAUUCUUUCUCGAUAUCAUAUUAAUCUUU | 5.82 nM
36 | UCUCUUUGUAACAUUAUCUCUU (ssRNA) [Ib_S1_P5E.1_K5.1_C5.1_H5.1_A5.1_[T5A]_[T6C]_F5.1_T5.1] | 4.31 nM
37 | Id_iii_S2_P5E.8_K5.4_C5.3_[T-3A]_H5.1_A5.2_F5.1_T5.2 (ssRNA) RNA: UUUGAUUAAUAUGAUAUCGUUCUUUCUACUUGUAAUAUUAUAUUCUUUCUCGAUAUCAUAUUAAUCUUU | 8.09 nM
38 | Id_iii_S2_P5E.8_K5.4_C5.3_[C-2G]_H5.1_A5.2_F5.1_T5.2 (ssRNA) RNA: UUUGAUUAAUAUGAUAUCGUUCUUUCUUGUUGUAAUAUUAUAUUCUUUCUCGAUAUCAUAUUAAUCUUU | 15.4 nM
39 | Id_iii_S2_P5E.8_K5.4_C5.3_[C-2T]_H5.1_A5.2_F5.1_T5.2 (ssRNA) RNA: UUUGAUUAAUAUGAUAUCGUUCUUUCUUUUUGUAAUAUUAUAUUCUUUCUCGAUAUCAUAUUAAUCUUU | 8.91 nM
40 | Id_iii_S2_P5E.8_K5.4_C5.3_[C-2A]_H5.1_A5.2_F5.1_T5.2 (ssRNA) RNA: UUUGAUUAAUAUGAUAUCGUUCUUUCUUAUUGUAAUAUUAUAUUCUUUCUCGAUAUCAUAUUAAUCUUU | 40.3 nM
41 | Id_iii_S2_P5E.8_K5.4_C5.3_H5.1_A5.2_F5.1_T5.2_[A12G] (ssRNA) RNA: UUUGAUUAAUAUGAUAUCGUUCUUUCUUCUUGUAAUAUUAUGUUCUUUCUCGAUAUCAUAUUAAUCUUU | 6.61 nM
42 | Id_iii_S2_P5E.8_K5.4_C5.3_H5.1_A5.2_F5.1_T5.2_[A12C] (ssRNA) RNA: UUUGAUUAAUAUGAUAUCGUUCUUUCUUCUUGUAAUAUUAUCUUCUUUCUCGAUAUCAUAUUAAUCUUU | 3.6 nM
43 | Id_iii_S2_P5E.8_K5.4_C5.3_H5.1_A5.2_F5.1_T5.2_[A12T] (ssRNA) RNA: UUUGAUUAAUAUGAUAUCGUUCUUUCUUCUUGUAAUAUUAUUUUCUUUCUCGAUAUCAUAUUAAUCUUU | 2.65 nM
44 | Id_iii_S2_P5E.9_K5.5_C5.3_H5.1_A5.2_F5.2_T5.2_[A12G] (ssRNA) RNA: UUUGAUUAAUAUGAUAUCGUUCUUUCUUCUUGUAAUAAAAUGUUCUUUCUCGAUAUCAUAUUAAUCUUU | 189 nM
45 | Id_iii_S2_P5E.9_K5.5_C5.3_H5.1_A5.2_F5.2_T5.2_[A12C] (ssRNA) RNA: UUUGAUUAAUAUGAUAUCGUUCUUUCUUCUUGUAAUAAAAUCUUCUUUCUCGAUAUCAUAUUAAUCUUU | 146 nM
